Experimental findings from the RNAGym collection of RNA variant scans (doi:10.1093/molbev/msab373) are described below.

B1: Azoarcus group I ribozyme (parent)
chain: GUGCCUUGCGCCGGGAAACCACGCAAGGGAUGGUGUCAAAUUCGGCGAAACCUAAGCGCCCGCCCGGGCGUAUGGCAACGCCGAGCCAAGCUUCGGCGCCUGCGCCGAUGAAGGUGUAGAGACUAGACGGCACCCACCUAAGGCAAACGCUAUGGUGAAGGCAUAGUCCAGGGAGUGGCGAAAGUCACACAAACCGG

In this series the parent is B1. Briefly: reverse-splicing fitness (ratio to wild type); higher = more active; in vitro selection; Mg2+ level not given. In a few lines:
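An in vitro group I ribozyme library with randomized positions was T7-transcribed and gel-purified. In triplicate, 10 pmol RNA in EPPS pH 7.5 was reacted with 50 pmoles of a 30-nt RNA substrate for 1 h at 37 °C across several added MgCl2 levels (1–48 mM), then stopped with EDTA. Products were reverse transcribed from a substrate-complementary primer, PCR-amplified and sequenced (HiSeq 4000). Fitness is a variant's read proportion after selection over that before, normalised to wild type.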
Regarding C82A A111G C150A C169A U176A, the reverse-splicing fitness is 0.0203.
For C82A A111G C150A C169A U176C, the reverse-splicing fitness stood at 0.0218.
As for C82A A111G C150A C169A U176G, the figure is 0.0074; as for C82A A111U A120C A145U C169A U176C, 0.0235.
Take C82A A111U A120C A145U C169A U176G: the reverse-splicing fitness was determined as 0.00804.
For C82A A111U A120C A145U C169A U176A the value was 0.0227.
For C82A A111G A145U C150G C169G the value was 0.00749; for C82A A111G A145U C150G C169U, 0.00964; for C82A A111G A145U C150G C169A, 0.00833.
As for C82A A111U A120C A145U C150A C169A U176A, the figure is 0.0231; as for C82A A111U A120C A145U C150A C169A U176G, 0.00919.
Turning to C82A A111U A120C A145U C150A C169A U176C, the reverse-splicing fitness is 0.0189.
For the variant C82A A111G A145U C150U C169U U176A, the reverse-splicing fitness is 0.014.
In the case of C82A A111G A145U C150U C169U U176C, the reverse-splicing fitness is 0.0116.
For C82A A111G A145U C150U C169U U176G the value was 0.00658; for C82A A111G A145U C169U, 0.0125.
For C82A A111G A145U C169A, the reverse-splicing fitness is 0.00788.
As for C82A A111G A145U C169G, the figure is 0.00852.
As for C82A A111U A120C A145G C150A C169U, the figure is 0.0104; as for C82A A111U A120C A145G C150A C169A, 0.0122; as for C82A A111U A120C A145G C150A C169G, 0.00972.
For C82A A111U A120C A145U C150G U176G the value was 0.00439; for C82A A111U A120C A145U C150G U176C, 0.00808; for C82A A111U A120C A145U C150G U176A, 0.00752.
As for C82A A111U A120C A145G C150G C169A, the reverse-splicing fitness was determined as 0.00936.
As for C82A A111U A120C A145G C150G C169G, the figure is 0.00768; as for C82A A111U A120C A145G C150G C169U, 0.0104.
For C82A A111U A120C A145U C150A C169U U176A the value was 0.0174.
C82A A111U A120C A145U C150A C169U U176C: the reverse-splicing fitness turned out to be 0.0133.
As for C82A A111U A120C A145U C150A C169U U176G, the figure is 0.00856.
As for C82A A111U A120C A145G C169A, the figure is 0.0113.
For C82A A111U A120C A145G C169G the value was 0.0103.
C82A A111U A120C A145G C169U: the reverse-splicing fitness amounted to 0.0142.
As for C82A A111G A145U C150U C169U, the figure is 0.0118.
Turning to C82A A111G A145U C150U C169G, the reverse-splicing fitness amounted to 0.00926.
For C82A A111G A145U C150U C169A the value was 0.00951; for C82A A111U A120C A145C C150G C169U U176A, 0.00683; for C82A A111U A120C A145C C150G C169U U176G, 0.00543.
For the variant C82A A111U A120C A145C C150G C169U U176C, the reverse-splicing fitness is 0.0102.
As for C82A A111U A120C A145G C150A C169U U176A, the figure is 0.019.
For C82A A111U A120C A145G C150A C169U U176G the value was 0.00879; for C82A A111U A120C A145G C150A C169U U176C, 0.0176; for C82A A111U A120C A145C C169G U176C, 0.0325.
As for C82A A111U A120C A145C C169G U176A, the figure is 0.0334; as for C82A A111U A120C A145C C169G U176G, 0.00816.
C82A A111U A120C A145G C150G U176A: the reverse-splicing fitness came to 0.00848.
As for C82A A111U A120C A145G C150G U176G, the figure is 0.00733.
As for C82A A111U A120C A145G C150G U176C, the figure is 0.0126; as for C82A A111U A120C A145C C150G C169G U176G, 0.0065.
For C82A A111U A120C A145C C150G C169G U176C the value was 0.00882; for C82A A111U A120C A145C C150G C169G U176A, 0.0109.
For C82A A111U A120C A145G C150U C169G U176C, the reverse-splicing fitness turned out to be 0.0201.
Take C82A A111U A120C A145G C150U C169G U176A: the reverse-splicing fitness was determined as 0.0138.
As for C82A A111U A120C A145G C150U C169G U176G, the figure is 0.00639; as for C82A A111U A120C A145U C150A C169G, 0.00953; as for C82A A111U A120C A145U C150A C169U, 0.0109.
C82A A111U A120C A145U C150A C169A: the reverse-splicing fitness was determined as 0.0109.
As for C82A A111G C150G C169U, the reverse-splicing fitness was found to be 0.0107.
In the case of C82A A111G C150G C169A, the reverse-splicing fitness was determined as 0.0102.
For C82A A111G C150G C169G, the reverse-splicing fitness was found to be 0.00678.
As for C82A A111U A120C A145C C150U C169G U176G, the figure is 0.00842; as for C82A A111U A120C A145C C150U C169G U176A, 0.0356.
As for C82A A111U A120C A145C C150U C169G U176C, the figure is 0.0353; as for C82A A111U A120C A145C C150U C169A U176A, 0.0182.
For C82A A111U A120C A145C C150U C169A U176G the value was 0.00873; for C82A A111U A120C A145C C150U C169A U176C, 0.0162; for C82A A111U A120C A145G C150U U176A, 0.0126.
As to C82A A111U A120C A145G C150U U176G, the reverse-splicing fitness was found to be 0.00822.
For C82A A111U A120C A145G C150U U176C the value was 0.0246.
As for C82A A111G A145U C150G C169A U176A, the figure is 0.0104; as for C82A A111G A145U C150G C169A U176G, 0.00684.
As to C82A A111G A145U C150G C169A U176C, the reverse-splicing fitness was 0.0104.
For C82A A111U A120C A145U C150U C169G the value was 0.00959.
As for C82A A111U A120C A145U C150U C169U, the figure is 0.0116; as for C82A A111U A120C A145U C150U C169A, 0.0111; as for C82A A111G A145U U176C, 0.249.
For the variant C82A A111G A145U U176A, the reverse-splicing fitness came out at 0.179.
As for C82A A111G A145U U176G, the figure is 0.0692.
For C82A A111U A120C A145U C150G C169A U176A, the reverse-splicing fitness was 0.0117.
For C82A A111U A120C A145U C150G C169A U176G the value was 0.00766.
On to C82A A111U A120C A145U C150G C169A U176C, for which the reverse-splicing fitness was determined as 0.0116.
For C82A A111G C150U U176C the value was 0.127; for C82A A111G C150U U176A, 0.0842; for C82A A111G C150U U176G, 0.0264.
